# Test results: paper PMC8495455, “Discovery of a transdermally deliverable pentapeptide for activating AdipoR1 to promote hair growth” (EMBO Molecular Medicine, 2021)
# B1: GST-fused P5 (GLYYF) [human] / Flag-fused N-terminal-truncated AdipoR1 (residues 89-375) [human] (parent complex)
# chain 1: GLYYF
# chain 2: EGRWRVIPYDVLPDWLKDNDYLLHGHRPPMPSFRACFKSIFRIHTETGNIWTHLLGFVLFLFLGILTMLRPNMYFMAPLQEKVVFGMFFLGAVLCLSFSWLFHTVYCHSEKVSRTFSKLDYSGIALLIMGSFVPWLYYSFYCSPQPRLIYLSIVCVLGISAIIVAQWDRFATPKHRQTRAGVFLGLGLSGVVPTMHFTIAEGFVKATTVGQMGWFFLMAVMYITGAGLYAARIPERFFPGKFDIWFQSHQIFHVLVVAAAFVHFYGVSNLQEFRYGLEGGCTDDTLL
# B2: Flag-fused N-terminal-truncated AdipoR1 (residues 89-375) [human] / GST-fused P5 (GLYYF) [human] (parent complex)
# chain 1: B1 chain 2
# chain 2: GLYYF
# Variants of: B1
# Test: GST pulldown; n = 3 technical replicates/group; parent: 1; read off a plot
row,ratio to parent,Variant
1,~0.13,chain 1 GLYDF [chain 1 Y4D]
2,~0.12,chain 1 GLYAF [chain 1 Y4A]

# Variants of: B2
# Test: as above
row,Variant,ratio to parent
1,chain 1 EGRWRVIPYDVLPDWLKDNDYLLHGHRPPMPSFRACFKSIFRIHTETGNIWTHLLGFVLFLFLGILTMLRPNMYFMAPLQEKVVFGMFFLGAVLCLSFSWLFHTVYCHSEKVSRTFSKLDYSGIALLIMGSFVPWLYYSFYCSPQPRLIYLSIVCVLGISAIIVAQWDRFATPKHRQTRAGVFLGLGLSGVVPTMHATIAEGFVKATTVGQMGWFFLMAVMYITGAGLYAARIPERFFPGKFDIWFQSHQIFHVLVVAAAFVHFYGVSNLQEFRYGLEGGCTDDTLL [chain 1 F197A],~0.57
2,chain 1 EGRWRVIPYDVLPDWLKDNDYLLHGHRPPMPSFRACFKSIFRIHTETGNIWTHLLGFVLFLFLGILTMLRPNMYFMAPLQEKVVFGMFFLGAVLCLSFSWLFHTVYCHSEKVSRTFSKLDYSGIALLIMGSFVPWLYYSFYCSPQPRLIYLSIVCVLGISAIIVAQWDRFATPKHRQTRAGVFLGLGLSGVVPTMHETIAEGFVKATTVGQMGWFFLMAVMYITGAGLYAARIPERFFPGKFDIWFQSHQIFHVLVVAAAFVHFYGVSNLQEFRYGLEGGCTDDTLL [chain 1 F197E],~0.3

# Next, values leading:
row,ratio to parent,Variant
1,~0.73,chain 1 EGRWRVIPYDVLPDWLKDNDYLLHGHRPPMPSFRACFKSIFRIHTETGNIWTHLLGFVLFLFLGILTMLRPNMYFMAPLQEKVVFGMFFLGAVLCLSFSWLFHTVYCHSEKVSRTFSKLDYSGIALLIMGSFVPWLYYSFYCSPQPRLIYLSIVCVLGISAIIVAQWDRFATPKHRQTRAGVFLGLGLSGVVPTMHFTIAEGFVKATTVGQMGWFFLMAVMYITGAGLYAARIPERFFPGKFDIWFQSHQIFHVLVVAAAFVHFYGVSNLQEARYGLEGGCTDDTLL [chain 1 F273A]
2,~0.83,chain 1 EGRWRVIPYDVLPDWLKDNDYLLHGHRPPMPSFRACFKSIFRIHTETGNIWTHLLGFVLFLFLGILTMLRPNMYFMAPLQEKVVFGMFFLGAVLCLSFSWLFHTVYCHSEKVSRTFSKLDYSGIALLIMGSFVPWLYYSFYCSPQPRLIYLSIVCVLGISAIIVAQWDRFATPKHRQTRAGVFLGLGLSGVVPTMHFTIAEGFVKATTVGQMGWFFLMAVMYITGAGLYAARIPERFFPGKFDIWFQSHQIFHVLVVAAAFVHFYGVSNLQEFAYGLEGGCTDDTLL [chain 1 R274A]

# Variants of: B2
# Test: as above
# Remark: another data set of the same source
row,ratio to parent,Variant
1,~0.75,"chain 1 EGRWRVIPYDVLPDWLKDNDYLLHGHRPPMPSFRACFKSIFRIHTETGNIWTHLLGFVLFLFLGILTMLRPNMYFMAPLQEKVVFGMFFLGAVLCLSFSWLFHTVYCHSEKVSRTFSKLDYSGIALLIMGSFVPWLYYSFYCSPQPRLIYLSIVCVLGISAIIVAQWDRFATPKHRQTRAGVFLGLGLSGVVPTMHATIAEGFVKATTVGQMGWFFLMAVMYITGAGLYAARIPERFFPGKFDIWFQSHQIFHVLVVAAAFVHFYGVSNLQEFAYGLEGGCTDDTLL [chain 1 F197A, chain 1 R274A]"
2,~0.45,"chain 1 EGRWRVIPYDVLPDWLKDNDYLLHGHRPPMPSFRACFKSIFRIHTETGNIWTHLLGFVLFLFLGILTMLRPNMYFMAPLQEKVVFGMFFLGAVLCLSFSWLFHTVYCHSEKVSRTFSKLDYSGIALLIMGSFVPWLYYSFYCSPQPRLIYLSIVCVLGISAIIVAQWDRFATPKHRQTRAGVFLGLGLSGVVPTMHETIAAGFVKATTVGQMGWFFLMAVMYITGAGLYAARIPERFFPGKFDIWFQSHQIFHVLVVAAAFVHFYGVSNLQEFRYGLEGGCTDDTLL [chain 1 F197E, chain 1 E201A]"
3,~0.72,"chain 1 EGRWRVIPYDVLPDWLKDNDYLLHGHRPPMPSFRACFKSIFRIHTETGNIWTHLLGFVLFLFLGILTMLRPNMYFMAPLQEKVVFGMFFLGAVLCLSFSWLFHTVYCHSEKVSRTFSKLDYSGIALLIMGSFVPWLYYSFYCSPQPRLIYLSIVCVLGISAIIVAQWDRFATPKHRQTRAGVFLGLGLSGVVPTMHETIAEGFVKATTVGQMGWFFLMAVMYITGAGLYAARIPERFFPGKFDIWFQSHQIFHVLVVAAAFVHFYGVSNLQEARYGLEGGCTDDTLL [chain 1 F197E, chain 1 F273A]"

# Variants of: B2
# Test: as above
# Remark: another data set of the same source
row,ratio to parent,Variant
1,~0.65,chain 1 EGRWRVIPYDVLPDWLKDNDYLLHGHRPPMPSFRACFKSIFRIHTETGNIWTHLLGFVLFLFLGILTMLRPNMYFMAPLQEKVVFGMFFLGAVLCLSFSWLFHTVYCHSEKVSRTFSKLDYSGIALLIMGSFVPWLYASFYCSPQPRLIYLSIVCVLGISAIIVAQWDRFATPKHRQTRAGVFLGLGLSGVVPTMHFTIAEGFVKATTVGQMGWFFLMAVMYITGAGLYAARIPERFFPGKFDIWFQSHQIFHVLVVAAAFVHFYGVSNLQEFRYGLEGGCTDDTLL [chain 1 Y138A]
2,~1,chain 1 EGRWRVIPYDVLPDWLKDNDYLLHGHRPPMPSFRACFKSIFRIHTETGNIWTHLLGFVLFLFLGILTMLRPNMYFMAPLQEKVVFGMFFLGAVLCLSFSWLFHTVYCHSEKVSRTFSKLDYSGIALLIMGSFVPWLYYSFACSPQPRLIYLSIVCVLGISAIIVAQWDRFATPKHRQTRAGVFLGLGLSGVVPTMHFTIAEGFVKATTVGQMGWFFLMAVMYITGAGLYAARIPERFFPGKFDIWFQSHQIFHVLVVAAAFVHFYGVSNLQEFRYGLEGGCTDDTLL [chain 1 Y141A]
3,~0.77,chain 1 EGRWRVIPYDVLPDWLKDNDYLLHGHRPPMPSFRACFKSIFRIHTETGNIWTHLLGFVLFLFLGILTMLRPNMYFMAPLQEKVVFGMFFLGAVLCLSFSWLFHTVYCHSEKVSRTFSKLDYSGIALLIMGSFVPWLAYSFYCSPQPRLIYLSIVCVLGISAIIVAQWDRFATPKHRQTRAGVFLGLGLSGVVPTMHFTIAEGFVKATTVGQMGWFFLMAVMYITGAGLYAARIPERFFPGKFDIWFQSHQIFHVLVVAAAFVHFYGVSNLQEFRYGLEGGCTDDTLL [chain 1 Y137A]
